Reference: publication PMC10070494, “WSSV exploits AMPK to activate mTORC2 signaling for proliferation by enhancing aerobic glycolysis”

Target: rGST (UniProt P08515 1-218)
Experiment: EMSA; 1 and 3 μg rGST; Chemiluminescent EMSA Kit (Beyotime), buffer, salt and pH not stated; competitor 10 min then biotin probe 20 min at 25 °C; native 6% polyacrylamide gel
Settings: protein: recombinant; chain copies: 2; blunt

Sequence of rGST (P08515 whole entry): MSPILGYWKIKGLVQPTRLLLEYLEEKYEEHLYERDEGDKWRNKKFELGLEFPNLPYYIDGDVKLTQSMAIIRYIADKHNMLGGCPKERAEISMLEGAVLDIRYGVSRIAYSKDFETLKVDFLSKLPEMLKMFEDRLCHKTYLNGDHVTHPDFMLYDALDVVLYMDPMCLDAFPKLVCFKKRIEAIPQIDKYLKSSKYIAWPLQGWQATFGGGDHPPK

B1: HK-WT probe (dsDNA)
DNA 1: CAAATGACTAGAACGTGCGACATTAGTGAA
DNA 2: TTCACTAATGTCGCACGTTCTAGTCATTTG
B1: no binding.
